System: MS2 coat protein
Experiment: apparent KD of MS2 coat protein; designed switch direction (-1 OFF switch, 1 ON switch): -1; higher = weaker reporter binding
In short: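 Transcription of designed RNA switches on Illumina chips was done by stalled E. coli RNA polymerase. SNAP-549-labelled MS2 coat protein was then titrated in doubling steps from 0.7 or 1.5 nM to 3 µM, with steps of 0.8–1.5 h at the lowest and 10–20 min at the highest concentration. The per-design median over clusters of curve-fitted normalised fluorescence is reported as apparent KD.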

[1] = Eterna round: R95, input ligand: FMN 200 uM
[2] = Eterna round: R95, input ligand: microRNA oligo, concentration not stated
[3] = Eterna round: R95, input ligand: none
[4] = input ligand: microRNA oligo, concentration not stated

Sequence | apparent KD of MS2 coat protein [1] [nM] | apparent KD of MS2 coat protein [2] [nM] | apparent KD of MS2 coat protein [3] [nM] | apparent KD of MS2 coat protein [4] [nM] | apparent KD of MS2 coat protein (input ligand: FMN 200 uM) [nM] | apparent KD of MS2 coat protein (input ligand: none) [nM]
CCGAAAAUGCAGGAUAUCGUAUCGGAAACGAUACGAGAAGGGCAAACAUGAGGAUCACCCAUGUUCCUUAACGG [Mat - Exclusion 6 - Eli Mod - D76] (puzzle: Exclusion 6) | 21.3 | 19.4 | 18.9 |  |  | 
AGUUACUACAAGCUUUGGGACAUGAGGAUCACCCAUGUUCGUCUUAUUGUAGUAGGUACGCUGACGUACCUACUACA [Mat - Sensor v3 - turn-off var 1 - JL Mod - D7] (puzzle: Sensor v3, turn-off variant 1) | 14.8 | 39.6 | 13.8 |  |  | 
AUUAUAUAGACAGGAUAUUGAUUAUUAUUUUAACAUGAGGAUCACCCAUGUAGCCUUAUGUAUAACAAGAAGGGUCAUUUAUUA [Title] (Eterna round: R96, puzzle: Exclusion NG 2) |  |  |  | 124 |  | 
UAUUUGCAAGCGAGAUCCCACAUGAGGAUCACCCAUGUGCUCGUCUUAUAAGGUACUGUGACGAAAGUCACGGUACC [Sensor 3, v1 - 91 v26] (Eterna round: R97, puzzle: Sensor, turn-off variant 1) |  |  |  |  | 16.5 | 13.7
UCUCGCGGGCAAGGAUAUCCUACGUUGUUCUGGCCCGGGCAUGUUACAUGAGGAUCACCCAUGUGGGAGAAGGUGCGCCAGGGC [Design 36] (Eterna round: R96, puzzle: Exclusion NG 2) |  |  |  | 28.2 | 36.8 | 36.7
AAAUAAUAGAUAAAAUAAUACAUGAGGAUCACCCAUGUGGGAUGCUGAGGGUGAUACAGGCUUUUUGCUCGUCUUAU (puzzle: Sensor v3, turn-off variant 1) | 78.7 | 16.3 | 99.9 |  |  | 
UGAGAACAUGAGGAUCACCCAUGUAAGGAUAUGCGAAGAGUUCGGAGAGGUUGAGGAGGCAGAAGGUACAGGAG [JR_Exclu1_Sub043] (puzzle: Exclusion 1) | 46.8 | 35.8 | 58.7 |  |  | 
UUUUAGCGAGGAUAUACAUUUUUUUUAUUAUCCUCAUUAUUACAUGAGGAUCACCCAUGUAGAAGGCGCAUUUU [My Design] (puzzle: Exclusion 2) |  | 48.9 |  |  |  | 
UACUGGACAGGAUAUGUACUUGAGCACUUGAGGAUCACCCAAGUCAUCAAGUACUCAGGCACAGAAGGGUUAAUUU [jl-ex5.4.64 ViennaUCT mod] (Eterna round: R97, puzzle: Exclusion 5) |  |  |  |  | 330 | 129
GGUCGACAUGAGGAUCACCCAUGUCAGGAUAUCGUCACUGGAGCCUCGGCUCCAGUGACGAGAAGGGACAUAAU [E1/14-A2] (Eterna round: R97, puzzle: Exclusion 1) |  |  |  |  | 23.4 | 31.4
AAAUAGCUUGAGGAUAUUGGAUUGGAUUUAGUGCGAGAAGGCAAGACAUGAGGAUCACCCAUGUUGUGUUGGGA [EX6 #12] (Eterna round: R97, puzzle: Exclusion 6) |  |  |  |  | 72.7 | 55.1
UUGUUCCAUUAUGAGAUCCACAUGAGGAUCACCCAUGUAGGAGUAACAAGCUUUGCUCGAUCUAUUUCAUGCUUCUG [Eternabot (L1) Solution 40] (Eterna round: R97, puzzle: Sensor, turn-off variant 1) |  |  |  |  | 65.8 | 80.6
GAAAAGGCAGGAUAUGCAAUGUUUGUCCCAUCUCUCCUAAGACAUGAGGAUCACCCAUGUAGAAGGGCCAGGAA [Eternabot (L2) Solution 62] (Eterna round: R97, puzzle: Exclusion 2) |  |  |  |  | 33.7 | 26.5
GGCGAAGUAGGAUAUACAUGAGGAUCACCCAUGUAACCUAUAGGCGAAGAUCUUCUAUGUAGAAGGACUACGCU [jl-ex3-4.40 ViennaUCT mod] (Eterna round: R97, puzzle: Exclusion 3) |  |  |  |  | 15.3 | 15.3
GCAGCAACUCUAAUCAAACUAACAUGAGGAUCACCCAUGUCUCAGGAUAUGGUCUGGAUUACAGGCCAGAAGGGAGAAAGCUGC [Eli exng3 - 049] (Eterna round: R96, puzzle: Exclusion NG 3) |  |  |  | 10.4 | 9.04 | 14.8
GGUUGGCGAGGAUAUACAUGAGGAUCACCCAUGUGAGAGAAAAAAGCGAGGAAGAAAAGUAGAAGGCGCUGACG [salish99_ex3_r3_027] (puzzle: Exclusion 3) | 137 | 43 | 56 |  |  | 
ACAUGUUAUGUAGGAUAUUUUACACAUGAGGAUCACCCAUGUAACCGGAGGCUUUACUAUGAGUAAGAGAAGGGUAUGAACAUG [Ex NG2 #64] (Eterna round: R96, puzzle: Exclusion NG 2) |  |  |  | 42.2 | 92.5 | 83.7

Sequence | apparent KD of MS2 coat protein [1] [nM] | apparent KD of MS2 coat protein [2] [nM] | apparent KD of MS2 coat protein [3] [nM] | apparent KD of MS2 coat protein [4] [nM] | apparent KD of MS2 coat protein (input ligand: FMN 200 uM) [nM] | apparent KD of MS2 coat protein (input ligand: none) [nM]
UUUUUCAGGCCAGAUCCUCACAUGAGGAUCACCCAUGUGCUCGUCUGUUUUCGCACUAUCUUUUUUUUGUUAGUGCU [Level Boss var2-14] (puzzle: Sensor v3, turn-off variant 1) | 287 | 22.7 | 322 |  |  | 
CUGUAGCUACAAGCUUUUUGCACGUCAGGUAGUGACGCAACAUGAGGAUCACCCAUGUAUAGGGUGGGACAGGAUAG [JR_SV3TOV2_Sub049] (puzzle: Sensor v3, turn-off variant 2) | 443 | 153 | 495 |  |  | 
UUUAAUUUAAUUAAGAUCACAUGAGGAUCACCCAUGUAUAUAUAGGAUAUCAGCUCGAAUAGAGCUGAGAAGGAUAUAUACAUA [ExNG3/4-A4] (Eterna round: R96, puzzle: Exclusion NG 3) |  |  |  | 39.4 |  | 
CUUUUGUGAGGAUAUUAGUAGUAUAUAAAUAAAAUUACUACUGAGAAGGCACAUGAGGAUCACCCAUGUUCCUC [salish99_ex4_r3_052] (puzzle: Exclusion 4) |  | 30.4 |  |  |  | 
AAAAUGUGAGGAUAUCAGGUGUGCUAGAGAACUGGUACAUCUGAGAAGGCACAUGAGGAUCACCCAUGUUCUUC [Mat - Exclusion 4 - Mod of JL - D57] (puzzle: Exclusion 4) |  | 30.9 |  |  |  | 
UACAUGAGGAUCACCCAUGUUUUGUCGUGUAUGGUAUUUAUCUAGGAUAUCAAUUAAUUUAUUUAUGAGAAGGAGAAUAUUAAU [JMF's solution 14] (Eterna round: R96, puzzle: Exclusion NG 3) |  |  |  | 28.1 | 40.3 | 38.3
ACGCGUGGCUAGGAUAUGCAGCAAUCUAGCCAGGCAGAAGGAGCCACAUGAGGAUCACCCAUGUGGUGAUCCUC [eternacac ex6r4 sub2] (Eterna round: R97, puzzle: Exclusion 6) |  |  |  |  | 8.21 | 11.2
ACAUGUAAUGCAGGAUAUGGGACACAUGAGGAUCACCCAUGUGACCAGAUGUAAUGCUAAGAGUCUCAGAAGGGUAUGUACAUG [Ex NG2 #48] (Eterna round: R96, puzzle: Exclusion NG 2) |  |  |  | 13.2 | 17.8 | 17.8
AAUAAAUAAGCAGGAUCCUACAUGAGGAUCACCCAUGUGCUCGUCUUAUAAAGUACUAUCACGAAAGUGAUAGUACA [Mat - Sensor v3 - turn-off var 1 - Eli Mod - D75] (puzzle: Sensor v3, turn-off variant 1) | 115 | 103 | 145 |  |  | 
UUUUAACAUGAGGAUCACCCAUGUGAGGAUAUCGAAAUUUAUAUUUAUAUUAAUUUUUCGAGAAGGCACAUUUU [JMF 89] (puzzle: Exclusion 1) |  | 177 |  |  |  | 
AUAAUGUCAGGAUAUCAGUCGUACAGCUUCGGCUGUACGACUGAGAAGGGACAUGAGGAUCACCCAUGUGGUCA [E4/6-A1] (Eterna round: R97, puzzle: Exclusion 4) |  |  |  |  | 61 | 50.9
AACCCUCGUGUUAGGAUAUCCAGCGUCCGGGCGAGGGAGAAGGGACAUGAGGAUCACCCAUGUUUCGAUGGACA [Xeinesed] (Eterna round: R97, puzzle: Brourd's mod of Exclusion 4) |  |  |  |  | 19.5 | 19
GCAAGCUUUUGCUCGUCUUACAUGAGGAUCACCCAUGUCGGGUGCUUGCUUCGGGCCCGGGCCUCCCGGGCCCGGGC [-43.3, -67 kcal, A 10%] (Eterna round: R97, puzzle: Sensor, turn-off variant 1) |  |  |  |  | 61.8 | 66.3
CUUAAGUCAGGAUAUCAGGAGCAAGCUUAACGGGCACUCGCUGAGAAGGGACAUGAGGAUCACCCAUGUGCUCG [Eternabot (L2) Solution 17] (Eterna round: R97, puzzle: Exclusion 4) |  |  |  |  | 52.3 | 24.7
CUGAGCAGACGGAGAUCCAACAUGAGGAUCACCCAUGUCUCACAAGCUUUUUGCUUGUCUUAUUCUCCUCUGUUCUC [Leveasodi] (puzzle: Sensor v3, turn-off variant 1) | 12.8 | 16.6 | 12.1 |  |  | 
GGUCCACAUGAGGAUCACCCAUGUGAGGAUAUGCAGCGGGAGCCGCCGCCGAACCGAUGUAGAAGGCACACCUG [Eternabot (Original) Solution 19] (Eterna round: R97, puzzle: Exclusion 1) |  |  |  |  | 19 | 20.4
CAUACUAAAGUCAGGAUAUGCGGCCGAAUACGGGUGUAGAAGGGACAUGAGGAUCACCCAUGUAGAUAGUAAAG [EX-4 Malc #17] (puzzle: Brourd's mod of Exclusion 4) | 29.1 | 23.1 | 22.2 |  |  | 

Source: the supplement of paper PMC9170038
